The values that follow come from patent publication US20250295803A1, “5T4 ANTIBODY-DRUG CONJUGATES AND USES THEREOF” (EXELIXIS, INC., priority 2022, published 2025).

Substitutions are numbered along the chain they refer to.

Test [1] deals with T1, cynomolgus 5T4 on cells (HEK-cyno-5T4, transfected HEK293 and CHO cells) (cynomolgus monkey, UniProt Q4R8Y9 35-420).
T1 construct: also called HEK-cyno-5T4 cells
T1 sequence: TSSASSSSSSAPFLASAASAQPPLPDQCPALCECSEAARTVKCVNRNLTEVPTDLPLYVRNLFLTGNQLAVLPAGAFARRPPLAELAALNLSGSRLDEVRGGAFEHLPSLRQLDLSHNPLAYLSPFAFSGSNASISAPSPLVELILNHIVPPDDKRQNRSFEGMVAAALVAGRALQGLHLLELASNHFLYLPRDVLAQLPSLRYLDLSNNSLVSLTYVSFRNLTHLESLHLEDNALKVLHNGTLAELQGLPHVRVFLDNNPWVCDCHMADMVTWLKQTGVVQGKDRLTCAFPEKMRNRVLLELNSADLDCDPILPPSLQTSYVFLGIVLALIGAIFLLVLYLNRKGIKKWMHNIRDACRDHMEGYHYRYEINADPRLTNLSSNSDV
As to the kind of experiment: cell binding on transfected HEK293 and CHO cells.

Test [2] concerns the target T2, biotinylated cynomolgus 5T4 with His-Avi tag (produced in-house) (cynomolgus monkey, UniProt Q4R8Y9 35-355, biotin on the Avi tag).
T2 construct: also called cyno 5T4; Cyno 5T4 Octet (bivalent); not shown: C-terminal 6-His-Avi tag
T2 sequence: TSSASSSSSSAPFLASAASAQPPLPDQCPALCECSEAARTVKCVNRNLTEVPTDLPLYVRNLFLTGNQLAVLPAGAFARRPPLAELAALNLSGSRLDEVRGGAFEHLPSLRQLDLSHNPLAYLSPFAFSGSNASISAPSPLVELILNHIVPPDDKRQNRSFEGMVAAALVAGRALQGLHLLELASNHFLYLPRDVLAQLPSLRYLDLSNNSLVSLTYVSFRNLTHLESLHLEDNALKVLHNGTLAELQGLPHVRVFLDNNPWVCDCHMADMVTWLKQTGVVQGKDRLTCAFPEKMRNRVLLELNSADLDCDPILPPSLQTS
The test can be described thus: summary of Examples 2-5; form of the antigen not given.

B1: mAbA17 (antibody, V domains shown)
VH: EVQLVESGGGLVQPGGSLRLSCAASGFTFSRYWIHWVRQAPGKGLEWVAAIFPYSGSTLYADSVKGRFTISADTSKNTAYLQMNSLRAEDTAVYYCARSPSRSILPSGLDYWGQGTLVTVSS
VL: DIQMTQSPSSLSASVGDRVTITCRASQSVSSAVAWYQQKPGKAPKLLIYSASSLYSGVPSRFSGSRSGTDFTLTISSLQPEDFATYYCQQGDGSPYTFGQGTKVEIKR
notes: also called Antibody mAbA17
For B1, the binding result in test [1] is listed as “binds”.

B2: mAbA4 (antibody, V domains shown)
VH: EVQLVESGGGLVQPGGSLRLSCAASGFTFSRYYIHWVRQAPGKGLEWVAFISPGGSYTYYADSVKGRFTISADTSKNTAYLQMNSLRAEDTAVYYCAREYYSMGVLDYWGQGTLVTVSS
VL: B1 VL with G91A, D92Y, G93E
notes: also called Antibody mAbA4
B2: the binding result in test [2] is on record as “binds”.
